The numbers were not newly measured in article PMC5897016, which cites them from elsewhere.

pKd: −log10 of the molar value.

For this series, the target named is Complement C5 (Homo sapiens) (UniProt P01031).

As for eculizumab, the negative logarithm of the Kd (pKd) is more than 10.30.
